From patent publication US20230192861A1

Experiments:
[1] = molecular target: human B7-H3 expressed on the surface of human cancer cell lines (human) (UniProt Q5ZPR3); experiment: FACS on HT29 cells, 10 ug/ml
[2] = molecular target: human B7-H3 expressed on the surface of human cancer cell lines (human) (UniProt Q5ZPR3); experiment: FACS on Hela cells, 10 ug/ml
[3] = molecular target: human B7-H3 expressed on the surface of human cancer cell lines (human) (UniProt Q5ZPR3); experiment: FACS on 786-0 cells, 10 ug/ml
[4] = molecular target: human B7-H3 expressed on the surface of human cancer cell lines (human) (UniProt Q5ZPR3); experiment: FACS on A-498 cells, 10 ug/ml
[5] = molecular target: human B7-H3 expressed on the surface of human cancer cell lines (human) (UniProt Q5ZPR3); experiment: FACS on A2780 cells, 10 ug/ml
[6] = molecular target: human B7-H3 expressed on the surface of human cancer cell lines (human) (UniProt Q5ZPR3); experiment: FACS on DLD-1 cells, 10 ug/ml
[7] = molecular target: human B7-H3 expressed on the surface of human cancer cell lines (human) (UniProt Q5ZPR3); experiment: FACS on MCF-7 cells, 10 ug/ml
[8] = molecular target: human B7-H3 expressed on the surface of human cancer cell lines (human) (UniProt Q5ZPR3); experiment: FACS on Calu-6 cells, 10 ug/ml
[9] = molecular target: human B7-H3 expressed on the surface of human cancer cell lines (human) (UniProt Q5ZPR3); experiment: FACS on HCT116 cells, 10 ug/ml
[10] = molecular target: human B7-H3 expressed on the surface of human cancer cell lines (human) (UniProt Q5ZPR3); experiment: FACS on JeKo-1 cells, 10 ug/ml
[11] = molecular target: human B7-H3 expressed on the surface of human cancer cell lines (human) (UniProt Q5ZPR3); experiment: FACS on Panc-1 cells, 10 ug/ml
[12] = molecular target: human B7-H3 expressed on the surface of human cancer cell lines (human) (UniProt Q5ZPR3); experiment: FACS on SKOV-3 cells, 10 ug/ml
[13] = molecular target: human B7-H3 expressed on the surface of human cancer cell lines (human) (UniProt Q5ZPR3); experiment: FACS on HCC1187 cells, 10 ug/ml
[14] = molecular target: human B7-H3 expressed on the surface of human cancer cell lines (human) (UniProt Q5ZPR3); experiment: FACS on HCC1954 cells, 10 ug/ml
[15] = molecular target: human B7-H3 expressed on the surface of human cancer cell lines (human) (UniProt Q5ZPR3); experiment: FACS on NCI-N87 cells, 10 ug/ml
[16] = molecular target: human B7-H3 expressed on the surface of human cancer cell lines (human) (UniProt Q5ZPR3); experiment: FACS on OVCAR-3 cells, 10 ug/ml
[17] = molecular target: human B7-H3 expressed on the surface of human cancer cell lines (human) (UniProt Q5ZPR3); experiment: FACS on MDA-MB-231 cells, 10 ug/ml
[18] = molecular target: human B7-H3 expressed on the surface of human cancer cell lines (human) (UniProt Q5ZPR3); experiment: FACS on MDA-MB-468 cells, 10 ug/ml

Chain of human B7-H3 expressed on the surface of human cancer cell lines (human) (Q5ZPR3 29-534): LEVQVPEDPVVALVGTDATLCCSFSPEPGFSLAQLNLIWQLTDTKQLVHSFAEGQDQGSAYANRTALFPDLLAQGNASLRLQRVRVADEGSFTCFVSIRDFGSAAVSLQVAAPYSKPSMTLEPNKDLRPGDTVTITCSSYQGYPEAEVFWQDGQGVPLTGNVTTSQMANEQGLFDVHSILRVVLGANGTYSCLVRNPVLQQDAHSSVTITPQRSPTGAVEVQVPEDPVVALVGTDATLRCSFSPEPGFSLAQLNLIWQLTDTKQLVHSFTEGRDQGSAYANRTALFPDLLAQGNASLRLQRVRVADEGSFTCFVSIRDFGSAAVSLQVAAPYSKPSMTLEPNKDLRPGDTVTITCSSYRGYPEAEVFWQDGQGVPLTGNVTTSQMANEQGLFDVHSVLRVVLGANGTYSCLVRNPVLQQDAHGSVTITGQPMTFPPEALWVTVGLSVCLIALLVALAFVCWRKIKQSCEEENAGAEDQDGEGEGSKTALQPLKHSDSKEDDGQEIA

B1: 84D (comparison anti-B7-H3 antibody, Enoblituzumab variable regions) (antibody, part only; not given: constant regions, V domains shown, not shown: another chain or arm of the molecule)
VH: EVQLVESGGGLVQPGGSLRLSCAASGFTFSSFGMHWVRQAPGKGLEWVAYISSDSSAIYYADTVKGRFTISRDNAKNSLYLQMNSLRDEDTAVYYCGRGRENIYYGSRLDYWGQGTTVTVSS
VL: DIQLTQSPSFLSASVGDRVTITCKASQNVDTNVAWYQQKPGKAPKALIYSASYRYSGVPSRFSGSGSGTDFTLTISSLQPEDFATYYCQQYNNYPFTFGQGTKLEIK
[1]
  MFI Ratio: 8.9
[2]
  MFI Ratio: 23.5
[3]
  MFI Ratio: 20
[4]
  MFI Ratio: 24
[5]
  MFI Ratio: 13.1
[6]
  MFI Ratio: 10.7
[7]
  MFI Ratio: 78
[8]
  MFI Ratio: 23.2
[9]
  MFI Ratio: 5.9
[10]
  MFI Ratio: 2.9
[11]
  MFI Ratio: 9
[12]
  MFI Ratio: 11.9
[13]
  MFI Ratio: 14.9
[14]
  MFI Ratio: 14
[15]
  MFI Ratio: 12.8
[16]
  MFI Ratio: 13.7
[17]
  MFI Ratio: 5.4
[18]
  MFI Ratio: 8.6
